The results in this text go back to article PMC3135484 (Molecular Biology of the Cell, 2011).

To fix the notation:
B3: GST-tagged Vam7 SNARE domain (190-316) (domain or fragment)
chain: PSTEVTRRAALLRSLLKECDDIGTANIAQDRGRLLGVATSDNSSTTEVQGRTNNDLQQGQMQMVRDQEQELVALHRIIQAQRGLALEMNEELQTQNELLTALEDDVDNTGRRLQIANKKARHFNNSA

Experiment in all cases: pull-down
The target of assay [1] is HOPS (homotypic fusion and protein sorting) complex (yeast (S. cerevisiae), UniProt P38959;Q07468;P20795;P12868;Q03308;P27801).
Assay [2] concerns the target T1, Vps16 (individual HOPS subunit, TAP-purified) (yeast (S. cerevisiae), UniProt Q03308 1-798).
T1 sequence: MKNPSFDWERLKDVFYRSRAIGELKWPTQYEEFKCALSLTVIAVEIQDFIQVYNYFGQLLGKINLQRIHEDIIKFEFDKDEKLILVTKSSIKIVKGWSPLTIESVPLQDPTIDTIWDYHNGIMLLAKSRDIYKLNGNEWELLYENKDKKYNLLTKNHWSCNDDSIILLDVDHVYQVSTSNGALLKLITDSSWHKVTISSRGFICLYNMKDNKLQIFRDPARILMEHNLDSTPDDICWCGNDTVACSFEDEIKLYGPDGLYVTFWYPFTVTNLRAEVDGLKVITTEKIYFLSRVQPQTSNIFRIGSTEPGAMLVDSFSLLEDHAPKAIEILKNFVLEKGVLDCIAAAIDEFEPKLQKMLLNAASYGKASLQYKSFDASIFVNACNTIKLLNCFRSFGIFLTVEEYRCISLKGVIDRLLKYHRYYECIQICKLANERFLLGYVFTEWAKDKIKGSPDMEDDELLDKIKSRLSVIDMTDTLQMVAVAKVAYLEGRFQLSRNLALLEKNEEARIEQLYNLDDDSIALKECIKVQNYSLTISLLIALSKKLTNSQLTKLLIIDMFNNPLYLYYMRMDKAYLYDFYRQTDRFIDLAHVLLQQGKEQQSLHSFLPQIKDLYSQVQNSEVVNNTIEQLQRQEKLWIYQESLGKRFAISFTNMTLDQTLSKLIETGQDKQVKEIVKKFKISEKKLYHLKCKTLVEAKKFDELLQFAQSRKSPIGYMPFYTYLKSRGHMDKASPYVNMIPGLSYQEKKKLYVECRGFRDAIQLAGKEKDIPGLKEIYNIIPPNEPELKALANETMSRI

Assay [3] concerns the target T2, Vps18 (individual HOPS subunit, TAP-purified) (yeast (S. cerevisiae), UniProt P27801 1-918).
T2 sequence: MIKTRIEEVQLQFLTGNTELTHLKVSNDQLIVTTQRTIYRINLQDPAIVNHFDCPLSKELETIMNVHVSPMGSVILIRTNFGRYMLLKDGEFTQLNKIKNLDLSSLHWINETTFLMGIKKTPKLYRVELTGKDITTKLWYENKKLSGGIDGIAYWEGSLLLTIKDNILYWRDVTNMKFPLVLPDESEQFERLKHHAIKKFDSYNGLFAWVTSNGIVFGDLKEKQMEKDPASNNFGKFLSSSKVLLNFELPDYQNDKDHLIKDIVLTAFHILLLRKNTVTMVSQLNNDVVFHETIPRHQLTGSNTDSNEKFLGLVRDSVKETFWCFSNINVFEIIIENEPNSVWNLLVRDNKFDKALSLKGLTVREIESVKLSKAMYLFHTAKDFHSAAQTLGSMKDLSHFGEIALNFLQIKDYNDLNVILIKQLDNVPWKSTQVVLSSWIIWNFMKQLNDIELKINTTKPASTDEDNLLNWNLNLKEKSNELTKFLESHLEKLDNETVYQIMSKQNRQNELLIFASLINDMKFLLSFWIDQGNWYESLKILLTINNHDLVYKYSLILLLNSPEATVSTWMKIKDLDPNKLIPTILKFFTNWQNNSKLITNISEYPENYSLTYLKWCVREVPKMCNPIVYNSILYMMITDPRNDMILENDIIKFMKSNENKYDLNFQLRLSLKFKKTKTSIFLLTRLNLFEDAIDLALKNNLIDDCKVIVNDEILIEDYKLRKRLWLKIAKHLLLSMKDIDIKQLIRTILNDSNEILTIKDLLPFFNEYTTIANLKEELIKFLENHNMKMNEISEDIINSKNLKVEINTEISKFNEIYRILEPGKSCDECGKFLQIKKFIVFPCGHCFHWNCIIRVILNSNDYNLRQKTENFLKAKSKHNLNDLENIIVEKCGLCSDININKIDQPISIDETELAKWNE

The target in assay [4] is T3, Vps33 (individual HOPS subunit, Sec1/Munc18 protein, TAP-purified) (yeast (S. cerevisiae), UniProt P20795 1-691).
T3 sequence: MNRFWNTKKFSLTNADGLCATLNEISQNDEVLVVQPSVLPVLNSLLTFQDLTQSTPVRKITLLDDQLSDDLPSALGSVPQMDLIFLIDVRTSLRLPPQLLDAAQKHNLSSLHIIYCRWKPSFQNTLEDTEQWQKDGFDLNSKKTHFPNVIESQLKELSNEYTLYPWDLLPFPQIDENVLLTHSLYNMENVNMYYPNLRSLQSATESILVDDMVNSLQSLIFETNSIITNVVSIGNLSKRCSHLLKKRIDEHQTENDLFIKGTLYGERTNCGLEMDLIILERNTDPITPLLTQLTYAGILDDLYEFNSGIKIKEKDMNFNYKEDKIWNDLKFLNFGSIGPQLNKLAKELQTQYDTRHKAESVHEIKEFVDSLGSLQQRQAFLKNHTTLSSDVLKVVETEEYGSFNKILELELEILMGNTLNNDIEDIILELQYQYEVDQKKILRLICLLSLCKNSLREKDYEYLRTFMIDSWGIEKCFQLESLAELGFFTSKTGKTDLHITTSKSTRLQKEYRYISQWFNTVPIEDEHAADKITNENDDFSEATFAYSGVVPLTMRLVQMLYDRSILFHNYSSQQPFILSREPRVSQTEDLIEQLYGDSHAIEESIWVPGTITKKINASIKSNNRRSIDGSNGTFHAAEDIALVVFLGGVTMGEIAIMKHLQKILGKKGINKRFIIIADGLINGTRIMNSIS

The target of assay [5] is B3.
Assay [6] has as its target T4, His-tagged Vam3 (1-264, ΔTMD) (S. cerevisiae, UniProt Q12241 1-264).
T4 sequence: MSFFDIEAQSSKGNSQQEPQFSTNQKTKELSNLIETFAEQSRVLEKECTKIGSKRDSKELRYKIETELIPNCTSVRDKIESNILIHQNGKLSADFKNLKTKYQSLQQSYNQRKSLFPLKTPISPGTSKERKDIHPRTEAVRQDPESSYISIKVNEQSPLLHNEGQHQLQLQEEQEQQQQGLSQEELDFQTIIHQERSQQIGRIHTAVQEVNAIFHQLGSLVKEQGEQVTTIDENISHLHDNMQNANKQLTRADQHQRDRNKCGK

The target of assay [7] is His-tagged Vti1 (1-189, ΔTMD) (S. cerevisiae, UniProt Q04338 1-189).
In assay [8] the target is T5, His-tagged Ykt6 (1-200) (S. cerevisiae, UniProt P36015 1-200).
T5 sequence: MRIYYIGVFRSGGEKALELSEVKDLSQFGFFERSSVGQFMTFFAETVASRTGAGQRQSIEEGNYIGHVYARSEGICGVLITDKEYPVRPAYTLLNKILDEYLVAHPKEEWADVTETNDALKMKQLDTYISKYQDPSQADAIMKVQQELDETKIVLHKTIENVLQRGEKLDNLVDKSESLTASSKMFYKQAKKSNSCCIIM

Chain of HOPS (homotypic fusion and protein sorting) complex (P38959 whole entry, chain 1 of 3, the tested form may be a part): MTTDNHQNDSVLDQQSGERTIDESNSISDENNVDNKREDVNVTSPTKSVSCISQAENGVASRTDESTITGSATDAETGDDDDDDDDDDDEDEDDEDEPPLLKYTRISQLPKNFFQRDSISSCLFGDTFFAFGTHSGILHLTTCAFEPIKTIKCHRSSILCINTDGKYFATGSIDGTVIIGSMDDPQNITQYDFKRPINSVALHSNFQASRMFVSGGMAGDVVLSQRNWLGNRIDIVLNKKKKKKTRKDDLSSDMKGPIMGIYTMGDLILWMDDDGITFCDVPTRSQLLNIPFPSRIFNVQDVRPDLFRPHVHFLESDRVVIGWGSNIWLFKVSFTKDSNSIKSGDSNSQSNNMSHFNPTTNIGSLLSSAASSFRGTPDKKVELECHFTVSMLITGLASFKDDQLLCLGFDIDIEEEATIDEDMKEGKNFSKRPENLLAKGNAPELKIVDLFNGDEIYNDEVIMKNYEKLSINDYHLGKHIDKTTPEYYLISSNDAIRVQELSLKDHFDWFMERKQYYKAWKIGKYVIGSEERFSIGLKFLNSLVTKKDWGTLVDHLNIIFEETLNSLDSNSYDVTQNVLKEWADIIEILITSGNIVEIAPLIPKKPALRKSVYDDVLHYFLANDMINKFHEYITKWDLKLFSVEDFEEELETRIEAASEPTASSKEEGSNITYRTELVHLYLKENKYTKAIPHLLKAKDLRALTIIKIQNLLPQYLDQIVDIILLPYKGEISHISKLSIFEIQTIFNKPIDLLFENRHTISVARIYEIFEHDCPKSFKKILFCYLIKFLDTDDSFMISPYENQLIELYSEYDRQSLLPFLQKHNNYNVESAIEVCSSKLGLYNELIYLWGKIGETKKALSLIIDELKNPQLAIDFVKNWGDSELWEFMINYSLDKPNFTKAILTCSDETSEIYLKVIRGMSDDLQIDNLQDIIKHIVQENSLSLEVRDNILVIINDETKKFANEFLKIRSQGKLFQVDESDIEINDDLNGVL
Chain of HOPS (homotypic fusion and protein sorting) complex (Q07468 whole entry, chain 2 of 3, the tested form may be a part): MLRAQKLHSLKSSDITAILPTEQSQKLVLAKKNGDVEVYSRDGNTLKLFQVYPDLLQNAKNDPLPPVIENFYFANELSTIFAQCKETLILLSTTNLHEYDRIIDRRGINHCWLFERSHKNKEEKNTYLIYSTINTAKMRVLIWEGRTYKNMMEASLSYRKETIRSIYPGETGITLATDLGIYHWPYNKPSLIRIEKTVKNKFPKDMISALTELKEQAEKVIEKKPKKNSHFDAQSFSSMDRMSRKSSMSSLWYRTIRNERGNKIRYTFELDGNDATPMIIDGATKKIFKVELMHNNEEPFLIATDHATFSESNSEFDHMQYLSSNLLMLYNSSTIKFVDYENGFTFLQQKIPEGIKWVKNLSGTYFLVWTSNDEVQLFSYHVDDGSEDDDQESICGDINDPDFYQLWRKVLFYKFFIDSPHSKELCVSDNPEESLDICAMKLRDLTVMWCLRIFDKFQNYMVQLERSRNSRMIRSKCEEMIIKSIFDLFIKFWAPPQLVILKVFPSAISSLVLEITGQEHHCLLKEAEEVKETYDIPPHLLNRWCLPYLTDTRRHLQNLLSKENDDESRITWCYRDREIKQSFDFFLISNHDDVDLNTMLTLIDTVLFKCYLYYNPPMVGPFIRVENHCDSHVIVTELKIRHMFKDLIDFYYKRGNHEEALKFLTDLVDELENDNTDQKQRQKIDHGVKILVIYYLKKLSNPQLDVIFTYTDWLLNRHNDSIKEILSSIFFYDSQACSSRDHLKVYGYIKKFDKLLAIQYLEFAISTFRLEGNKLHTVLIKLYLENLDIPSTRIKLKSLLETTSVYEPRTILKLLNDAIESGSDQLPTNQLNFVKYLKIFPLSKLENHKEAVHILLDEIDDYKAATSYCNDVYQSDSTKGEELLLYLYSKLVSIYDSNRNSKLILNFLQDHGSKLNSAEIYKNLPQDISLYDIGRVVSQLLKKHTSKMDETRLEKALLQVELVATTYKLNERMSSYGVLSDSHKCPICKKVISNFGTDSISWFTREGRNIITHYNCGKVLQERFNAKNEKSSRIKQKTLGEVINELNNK
Chain of HOPS (homotypic fusion and protein sorting) complex (P12868 whole entry, chain 4 of 3, the tested form may be a part): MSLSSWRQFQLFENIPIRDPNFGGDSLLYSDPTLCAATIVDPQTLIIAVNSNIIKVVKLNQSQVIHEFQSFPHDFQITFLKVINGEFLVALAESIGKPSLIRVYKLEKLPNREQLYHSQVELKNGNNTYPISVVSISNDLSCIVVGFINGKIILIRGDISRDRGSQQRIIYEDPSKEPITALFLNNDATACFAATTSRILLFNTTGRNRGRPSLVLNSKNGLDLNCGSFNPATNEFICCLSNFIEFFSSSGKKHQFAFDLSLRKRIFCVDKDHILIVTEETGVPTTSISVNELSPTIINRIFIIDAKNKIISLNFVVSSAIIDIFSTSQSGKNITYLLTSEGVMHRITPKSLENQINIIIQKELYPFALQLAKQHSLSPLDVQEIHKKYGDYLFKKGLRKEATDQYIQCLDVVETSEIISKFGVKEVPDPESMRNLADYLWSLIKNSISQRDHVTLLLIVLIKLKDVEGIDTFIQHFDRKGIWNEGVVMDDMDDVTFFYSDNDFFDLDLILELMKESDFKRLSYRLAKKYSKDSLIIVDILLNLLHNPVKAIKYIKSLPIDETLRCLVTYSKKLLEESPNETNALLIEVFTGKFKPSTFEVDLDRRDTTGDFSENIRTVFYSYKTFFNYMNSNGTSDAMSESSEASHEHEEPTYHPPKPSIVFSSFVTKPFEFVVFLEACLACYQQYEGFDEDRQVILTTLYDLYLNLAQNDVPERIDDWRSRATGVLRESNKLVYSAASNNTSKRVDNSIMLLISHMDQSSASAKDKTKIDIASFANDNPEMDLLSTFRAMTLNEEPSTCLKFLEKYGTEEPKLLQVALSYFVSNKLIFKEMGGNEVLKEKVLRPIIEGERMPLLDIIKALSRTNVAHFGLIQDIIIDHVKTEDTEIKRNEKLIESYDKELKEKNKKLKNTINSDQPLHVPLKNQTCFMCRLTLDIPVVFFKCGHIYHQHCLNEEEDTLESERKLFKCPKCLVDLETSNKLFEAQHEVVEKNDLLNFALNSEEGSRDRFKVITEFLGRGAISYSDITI

B1: minimal Q-SNARE complex (GST-Vam7 SD, Vam3ΔN and Vti1) (complex)
chain 1: PSTEVTRRAALLRSLLKECDDIGTANIAQDRGRLLGVATSDNSSTTEVQGRTNNDLQQGQMQMVRDQEQELVALHRIIQAQRGLALEMNEELQTQNELLTALEDDVDNTGRRLQIANKKARHFNNSA
chain 2: ESSYISIKVNEQSPLLHNEGQHQLQLQEEQEQQQQGLSQEELDFQTIIHQERSQQIGRIHTAVQEVNAIFHQLGSLVKEQGEQVTTIDENISHLHDNMQNANKQLTRADQHQRDRNKCGK
chain 3: MSSLLISYESDFKTTLEQAKASLAEAPSQPLSQRNTTLKHVEQQQDELFDLLDQMDVEVNNSIGDASERATYKAKLREWKKTIQSDIKRPLQSLVDSGDRDRLFGDLNASNIDDDQRQQLLSNHAILQKSGDRLKDASRIANETEGIGSQIMMDLRSQRETLENARQTLFQADSYVDKSIKTLKTMTRR
As to B1, the binding result in assay [1], in assay [2], in assay [3] and in assay [4] was “binds” in each case.

B2: His-tagged Vam3ΔN (145-264, lacking the Habc domain and the TMD) (domain or fragment)
chain: ESSYISIKVNEQSPLLHNEGQHQLQLQEEQEQQQQGLSQEELDFQTIIHQERSQQIGRIHTAVQEVNAIFHQLGSLVKEQGEQVTTIDENISHLHDNMQNANKQLTRADQHQRDRNKCGK
Turning to B2, in assay [5], the binding result was “binds”.

With B3, the binding result in assay [6], in assay [7] and in assay [8] was “binds” in each case.
